Literature values in PMC8296985, “A Covalent Calmodulin Inhibitor as a Tool to Study Cellular Mechanisms of K-Ras-Driven Stemness” (Frontiers in Cell and Developmental Biology, 2021).

Experiments:
[1] = biological target: Calmodulin (Homo sapiens) (UniProt P0DP23); test: fluorescence polarization
[2] = biological target: Calmodulin N-terminal lobe (Homo sapiens) (UniProt P0DP23)
[3] = biological target: Calmodulin C-terminal lobe (Homo sapiens) (UniProt P0DP23)

| Kd [1] [nM] | Kd [2] [nM] | Kd [3] [nM] | Substance |
| --- | --- | --- | --- |
| 6 | – | – | F-PMCA peptide (from UniProt P20020) |
| – | 4000 | 500 | K-Ras (from UniProt P01116) |
